Measured values published in patent publication US20250340637A1 (ABPRO, published 2025).
Positions count from the first letter of the chain named.

Experiments:
HuCD3E [1] = molecular target: T1, HuCD3E (Homo sapiens, UniProt P07766 23-126, limits assumed); experiment: SPR, Biacore 8K; CD3 Affinity column: Med; lower end of the range
T1 construct: Recombinant analyte in SPR and antigen in ELISA; also called human CD3; human CD3 epsilon

HuCD3E [2] = molecular target: T1, HuCD3E; experiment: SPR, Biacore 8K; CD3 Affinity column: Med; upper end of the range
HuCD3E [3] = molecular target: T1, HuCD3E; experiment: SPR, Biacore 8K; antibody captured, CD3E as analyte
Description: (§1) Initially, the affinity measurement of the anti-CD3 clones were determined using a Surface Plasmon Resonance (SPR) biosensor, Biacore 8K (GE Healthcare). The equilibrium dissociation constant (KD) was calculated from the ratio of kd over ka. To determine the contribution of a specific residue to antibody affinity and expression, paratope mapping was performed by screening of NNK libraries. In brief, the VH and VL of the parental antibody were searched by using NCBI Ig-Blast (www.ncbi.nlm.nih.gov/projects/igblast/) and CDRs were defined by the KABAT delineation system. All residues within CDRs were defined and mutated by NNK method. Each individual NNK library was generated per residue based on the FASEBA platform with a theoretical diversity at 20. The DNA encoding both heavy chain and light chain were inserted into a mammalian expression vector, transfected into CHO-S cells, and stable clones of highest expression were selected. Supernatants were collected from shaker flasks and purified on protein A affinity chromatography.
(§2) Affinity ranking. Binding between the parental and affinity-tuned bispecific antibodies and human and cyno target proteins (HER2 and CD3) was validated by ELISA, and a Biacore 8K was used to study the kinetics of the interaction between the antigen and the bispecific antibodies.

CynoCD3E [4] = molecular target: T2, CynoCD3E (cyno, UniProt Q95LI5 22-117, limits assumed); experiment: as above
T2 construct: Recombinant analyte in SPR and antigen in ELISA; The construct is not described; also called cynomolgus CD3 epsilon
T2 sequence (looked up): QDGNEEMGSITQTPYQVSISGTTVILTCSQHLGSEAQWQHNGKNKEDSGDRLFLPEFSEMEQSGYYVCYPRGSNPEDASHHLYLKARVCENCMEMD
Description: as §1, §2

HuCD3E [5] = molecular target: T1, HuCD3E; experiment: SPR, Biacore 8K; antibody captured, CD3E as analyte; sample after 24 h at 42° C.
Description: as §1
(§3) Thermal stability. […] After incubation, the supernatant was centrifuged at 4500 rpm, and undissolved substances was discarded. Heat-treated, purified full-length bispecific antibodies were re-evaluated for their concentrations, and affinity ranking of samples with thermal treatment to human and cyno CD3 was conducted.
as §2

CynoCD3E [6] = molecular target: T2, CynoCD3E; experiment: as above
Description: as §1, §3, §2

HuCD3E [7] = molecular target: T1, HuCD3E; experiment: SPR, Biacore 8K; CD3 Affinity column: Med; lower end of the range; remark: listed apart in the source
HuCD3E [8] = molecular target: T1, HuCD3E; experiment: SPR, Biacore 8K; CD3 Affinity column: Med; upper end of the range; remark: listed apart in the source
HuCD3E [9] = molecular target: T1, HuCD3E; experiment: SPR, Biacore 8K; CD3 Affinity column: Hi

T1 sequence (P07766 23-126 limits assumed): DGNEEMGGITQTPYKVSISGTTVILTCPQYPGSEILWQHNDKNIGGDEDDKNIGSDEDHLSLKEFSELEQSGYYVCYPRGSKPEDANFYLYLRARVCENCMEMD

B1: 32G4-V8-v5.2 (antibody, V domains shown)
VH: EVQLVESGGGLVQPGGSLKLSCAASGFTFNTYAMNWVRQAPGKGLEWVARIRSKYNNYATYKADSVKDRFTISRDDSKNTAYLQMNSLKTEDTAVYYCVRHGNFGNSYVSWFAYWGQGTLVTVSS
VL: QTVVTQEPSLTVSPGGTVTLTCRSSTGAVTTSNYANWVQQKPGQAFRGLIGGTNKRAPGVPARFSGSLLGGKAALTLSGVQPEDEAIYFCALWYSNLWVFGGGTKLTVL
HuCD3E [1]
  Kd: ≥ 10 nM
HuCD3E [2]
  Kd: ≤ 100 nM

B2: VH3 (SEQ ID NO: 18) + VL6 (SEQ ID NO: 19) (antibody, V domains shown)
VH: B1 VH with K62Y
VL: B1 VL with T107E, V108I, L109K
notes: Humanized SP34 anti-CD3 variant; The sample heated at 42° C. is the same molecule and is marked under assay; also called VH3 + VL6
HuCD3E [3]
  Kd: 1.25 nM
  koff: 0.000286 s⁻¹
  kon: 229000 M⁻¹ s⁻¹
CynoCD3E [4]
  Kd: 1.71 nM
  koff: 0.000469 s⁻¹
  kon: 274000 M⁻¹ s⁻¹
HuCD3E [5]
  Kd: 1.38 nM
  koff: 0.000343 s⁻¹
  kon: 249000 M⁻¹ s⁻¹
CynoCD3E [6]
  Kd: 1.36 nM
  koff: 0.000489 s⁻¹
  kon: 359000 M⁻¹ s⁻¹

B3: 32G4-V8-v5.3 (antibody, V domains shown)
VH: B1 VH with K62Y, S65K
VL: B1 VL
HuCD3E [1]
  Kd: ≥ 10 nM
HuCD3E [2]
  Kd: ≤ 100 nM

B4: 32G4-V8-v5.4 (antibody, V domains shown)
VH: B1 VH with K62Y, A63W
VL: B1 VL
HuCD3E [1]
  Kd: ≥ 10 nM
HuCD3E [2]
  Kd: ≤ 100 nM

B5: ABP100s.10.0.3 (antibody, V domains shown)
VH: B1 VH with G44C, K62Y, S65K
VL: B1 VL with G102C
HuCD3E [7]
  Kd: ≥ 10 nM
HuCD3E [8]
  Kd: ≤ 100 nM

B6: ABP100s.10.5 (antibody, V domains shown)
VH: B1 VH with G44C, K62Y
VL: B1 VL with G102C
HuCD3E [9]
  Kd: < 10 nM

B7: 47D10-V7-v5.2 (antibody, V domains shown)
VH: B1 VH
VL: B1 VL
HuCD3E [1]
  Kd: ≥ 10 nM
HuCD3E [2]
  Kd: ≤ 100 nM

B8: ABP100s.10.0.4 (antibody, V domains shown)
VH: B1 VH with G44C, K62Y, A63W
VL: B1 VL with G102C
HuCD3E [7]
  Kd: ≥ 10 nM
HuCD3E [8]
  Kd: ≤ 100 nM

B9: VH3 (SEQ ID NO: 18) + VL4 (SEQ ID NO: 20) (antibody, V domains shown)
VH: B1 VH with K62Y
VL: B1 VL with I87E, T107E, V108I, L109K
notes: Humanized SP34 anti-CD3 variant; The sample heated at 42° C. is the same molecule and is marked under assay; also called VH3 + VL4
HuCD3E [3]
  Kd: 1.72 nM
  koff: 0.000331 s⁻¹
  kon: 192000 M⁻¹ s⁻¹
CynoCD3E [4]
  Kd: 2.14 nM
  koff: 0.000501 s⁻¹
  kon: 234000 M⁻¹ s⁻¹
HuCD3E [5]
  Kd: 1.5 nM
  koff: 0.000349 s⁻¹
  kon: 232000 M⁻¹ s⁻¹
CynoCD3E [6]
  Kd: 1.9 nM
  koff: 0.00049 s⁻¹
  kon: 257000 M⁻¹ s⁻¹

B10: 47D10-V7-v5.4 (antibody, V domains shown)
VH: B1 VH with K62Y, A63W
VL: B1 VL
HuCD3E [1]
  Kd: ≥ 10 nM
HuCD3E [2]
  Kd: ≤ 100 nM

B11: ABP100s.10.0.2 (antibody, V domains shown)
VH: B1 VH with G44C
VL: B1 VL with G102C
HuCD3E [7]
  Kd: ≥ 10 nM
HuCD3E [8]
  Kd: ≤ 100 nM

B12: 47D10-V7-v5.3 (antibody, V domains shown)
VH: B1 VH with K62Y, S65K
VL: B1 VL
HuCD3E [1]
  Kd: ≥ 10 nM
HuCD3E [2]
  Kd: ≤ 100 nM

B13: ABP100s.10.6 (antibody, V domains shown)
VH: B1 VH with G44C, K62Y
VL: B1 VL with G102C
HuCD3E [9]
  Kd: < 10 nM

B14: ABP100s.10.0.1 (antibody, V domains shown)
VH: B1 VH with G44C, K62Y, A113G
VL: B1 VL with G102C
HuCD3E [9]
  Kd: < 10 nM

B15: ABP100s.10.4 (antibody, V domains shown)
VH: B1 VH with G44C, K62Y
VL: B1 VL with G102C
HuCD3E [9]
  Kd: < 10 nM
